The results in this text go back to US20240101692A1 (CEMM FORSCHUNGSZENTRUM F R MOLEKULARE MEDIZIN, published 2024).

Substitutions are numbered along the chain they refer to.

Experiment [1] concerns the target heparan sulfate proteoglycan 2 (human, UniProt P98160 22-4391). Put plainly: confocal microscopy of human coronary artery specimens stained with Aprily 2 and anti-HSPG2.
In experiment [2] the target is T1, Fc-hAPRIL C-terminal truncation ps4186 (aa 98-231) (human, UniProt O75888 115-248).
T1 construct: also called Fc-APRIL-ps4186
T1 sequence: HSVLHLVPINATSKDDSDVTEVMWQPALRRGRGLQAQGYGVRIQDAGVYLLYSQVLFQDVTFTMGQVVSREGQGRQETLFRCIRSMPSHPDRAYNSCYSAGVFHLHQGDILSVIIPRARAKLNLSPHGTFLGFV
Kind of experiment: sandwich ELISA on supernatant of transfected cells, capture Aprily5, detection Aprily 1-biot.

For experiment [3], the target named is T2, Fc-hAPRIL C-terminal truncation ps4188 (aa 98-229) (human, UniProt O75888 115-246).
T2 construct: also called Fc-APRIL-ps4188
T2 sequence: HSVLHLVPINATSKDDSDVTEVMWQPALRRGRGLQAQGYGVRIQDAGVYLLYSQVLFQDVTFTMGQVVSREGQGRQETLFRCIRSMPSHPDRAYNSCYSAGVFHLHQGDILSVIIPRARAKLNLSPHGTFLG
Described as above.

Experiment [4] addresses T3, Fc-hAPRIL WT (ps1307) (human, UniProt O75888 115-250).
T3 construct: APRIL residues are counted from Met18; also called Fc-APRIL-ps1307
T3 sequence: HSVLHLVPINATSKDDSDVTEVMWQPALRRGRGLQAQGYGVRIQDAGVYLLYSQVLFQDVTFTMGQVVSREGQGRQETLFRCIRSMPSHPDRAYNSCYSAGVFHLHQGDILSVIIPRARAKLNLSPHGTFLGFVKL
Described as above.

In experiment [5] the target is T4, Fc-hAPRIL C-terminal truncation ps4185 (aa 98-232) (human, UniProt O75888 115-249).
T4 construct: also called Fc-APRIL-ps4185
T4 sequence: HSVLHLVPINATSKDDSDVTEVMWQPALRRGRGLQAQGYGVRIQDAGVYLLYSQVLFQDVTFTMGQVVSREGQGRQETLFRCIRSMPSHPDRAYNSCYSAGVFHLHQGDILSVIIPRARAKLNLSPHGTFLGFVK
The description is as above.

Experiment [6] addresses T5, Fc-hAPRIL C-terminal truncation ps4187 (aa 98-230) (human, UniProt O75888 115-247).
T5 construct: also called Fc-APRIL-ps4187
T5 sequence: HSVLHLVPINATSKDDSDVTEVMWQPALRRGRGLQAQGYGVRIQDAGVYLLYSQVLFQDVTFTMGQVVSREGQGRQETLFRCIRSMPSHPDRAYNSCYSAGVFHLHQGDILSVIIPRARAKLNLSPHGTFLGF
The experiment is described as above.

Another experiment deals with T6, Flag-mouse APRIL (mouse, UniProt Q9D777 96-241, limits assumed).
T6 construct: Denatured in the assay (SDS-PAGE and Western blot)
T6 sequence (looked up): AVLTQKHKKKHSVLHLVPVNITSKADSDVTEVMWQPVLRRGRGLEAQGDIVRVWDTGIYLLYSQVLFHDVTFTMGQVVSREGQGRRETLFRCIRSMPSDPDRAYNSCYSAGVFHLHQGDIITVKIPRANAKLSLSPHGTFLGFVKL
Put plainly: Western blot of 50 ng Flag-mAPRIL after SDS-PAGE. As to the method: 50 ng of Flag-mouse APRIL “m” or Flag-human APRIL “h” were analyzed by SDS-PAGE on a 12% acrylamide gel, followed by Western blotting with the indicated anti-APRIL antibodies at 1 μg/ml, followed by HRP-coupled anti-mouse secondary reagent, or with a biotinylated anti-Flag antibody (M2-biot) followed by HRP-coupled streptavidin. The micration of molecular weight markers (in kDa) are indicated on the left-hand side.

Experiment [7] deals with T1, Fc-hAPRIL C-terminal truncation ps4186 …. Kind of experiment: sandwich ELISA on supernatant of transfected cells, capture Aprily5, detection Aprily2-biot. On the technique in general: An ELISA detects its analyte on a solid surface through an enzyme-linked reagent.
Experiment [8] addresses T2, Fc-hAPRIL C-terminal truncation ps4188 …. The experiment is described as above.
In experiment [9] the target is T3, Fc-hAPRIL WT (ps1307). Described as above.
The target of experiment [10] is T4, Fc-hAPRIL C-terminal truncation ps4185 …. Described as above.
The target of experiment [11] is T5, Fc-hAPRIL C-terminal truncation ps4187 …. The experiment is described as above.

B1: APRIL in human arteries (ligand)
chain: AVLTQKQKKQHSVLHLVPINATSKDDSDVTEVMWQPALRRGRGLQAQGYGVRIQDAGVYLLYSQVLFQDVTFTMGQVVSREGQGRQETLFRCIRSMPSHPDRAYNSCYSAGVFHLHQGDILSVIIPRARAKLNLSPHGTFLGFVKL
notes: Endogenous protein in tissue sections
Take B1: in experiment [1], the binding result is given as “binds”.

B2: Aprily 1 (antibody, V domains shown)
VH: QIQLVQSGPELKKPGETVRISCKASGYNFKTSGMSWVKQAPGKGLKWMGWIDTYAGVPTYTDDFKGRFVFSLETSATTAFLQINNLKNEDTGTYFCAREPGTDNWGQGTSLTVSS
VL: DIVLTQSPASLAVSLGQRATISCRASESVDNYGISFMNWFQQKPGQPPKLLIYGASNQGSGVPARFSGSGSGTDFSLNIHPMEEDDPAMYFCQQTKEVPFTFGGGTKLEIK
notes: Anti-human APRIL monoclonal antibody; Used biotinylated as detection antibody in some ELISAs; also called Aprily 1-biot
As for B2, the binding result is reported as “binds” in experiment [2]; “binds” in experiment [3]; “binds” in the experiment with Fc-hAPRIL WT (ps1307) [4]; “binds” in [5]; “binds” in [6]; “no binding (tested: 1 µg/ml)” with Flag-mouse APRIL.

B3: Aprily 2 (antibody, V domains shown)
VH: B2 VH with N28T, T53A, V57I, V69A, E73D
VL: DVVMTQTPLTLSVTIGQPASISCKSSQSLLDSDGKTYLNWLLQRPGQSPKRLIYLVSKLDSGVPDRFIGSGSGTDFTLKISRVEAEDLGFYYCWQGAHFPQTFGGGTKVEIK
notes: Anti-human APRIL monoclonal antibody; Used coupled to beads for depletion and biotinylated for detection; also called Aprily 2-biot
Turning to B3, the binding result is “binds” in [7]; “binds” in experiment [8]; “binds” with Fc-hAPRIL WT (ps1307) [9]; “binds” in [10]; “binds” in experiment [11]; “no binding (tested: 1 µg/ml)” with Flag-mouse APRIL.
